Measurements as given in publication PMC12083921.

Experiments:
[1] = target: AKAP79^FAAF, GFP-tagged, full length (human) (human) (UniProt P24588); assay: co-IP
[2] = target: AKAP79, mRFP-tagged, full length (human) (human) (UniProt P24588); assay: FRAP
[3] = target: AKAP79^FAAF, mRFP-tagged (human) (human) (UniProt P24588); assay: FRAP
[4] = target: AKAP79^AF, GFP-tagged, full length (human) (human) (UniProt P24588); assay: co-IP
[5] = target: AKAP79^FA, GFP-tagged, full length (human) (human) (UniProt P24588); assay: co-IP
[6] = target: AKAP150, mRFP-tagged (rat) (rat) (UniProt P24587); assay: FRAP
UniProt P24587, sequence (P24587 whole entry): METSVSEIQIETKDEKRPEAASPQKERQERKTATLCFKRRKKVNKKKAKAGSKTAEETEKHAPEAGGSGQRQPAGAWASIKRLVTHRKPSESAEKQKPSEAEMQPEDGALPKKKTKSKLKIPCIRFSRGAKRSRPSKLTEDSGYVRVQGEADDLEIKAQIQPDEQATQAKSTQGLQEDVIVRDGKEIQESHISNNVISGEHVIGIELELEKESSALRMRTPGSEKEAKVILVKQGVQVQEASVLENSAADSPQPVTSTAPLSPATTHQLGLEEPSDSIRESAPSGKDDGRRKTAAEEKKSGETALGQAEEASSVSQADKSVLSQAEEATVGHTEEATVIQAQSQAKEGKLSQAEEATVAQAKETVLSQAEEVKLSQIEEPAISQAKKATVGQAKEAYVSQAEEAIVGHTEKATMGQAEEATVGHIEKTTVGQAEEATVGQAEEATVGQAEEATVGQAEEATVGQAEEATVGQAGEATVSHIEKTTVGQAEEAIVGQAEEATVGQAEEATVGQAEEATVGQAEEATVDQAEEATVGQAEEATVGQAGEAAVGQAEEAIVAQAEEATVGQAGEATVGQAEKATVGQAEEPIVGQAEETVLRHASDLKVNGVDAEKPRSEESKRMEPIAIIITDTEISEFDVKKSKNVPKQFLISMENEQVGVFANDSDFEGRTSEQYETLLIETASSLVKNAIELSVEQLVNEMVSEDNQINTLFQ

Row | fold RI band intensity over controls [1] [fold] | FRAP recovery half-time [2] [s] | FRAP recovery rate constant [2] [s⁻¹] | FRAP recovery half-time [3] [s] | FRAP recovery rate constant [3] [s⁻¹] | percent decrease of RII binding against WT AKAP79 [4] [%] | percent decrease of RII binding against WT AKAP79 [5] [%] | percent decrease of RII binding against WT AKAP79 [1] [%] | FRAP recovery half-time [6] [s] | FRAP recovery rate constant [6] [s⁻¹] | Substance
1 | 3.55 | – | – | – | – | – | – | – | – | – | PKA type I regulatory subunit alpha (RIα), endogenous (from UniProt P10644 1-381) (natural protein)
2 | – | 8.74 | 0.079 | 20.5 | 0.034 | – | – | – | – | – | PKA type I regulatory subunit alpha, iRFP-tagged (RI-iRFP) (from UniProt P10644 1-381) (natural protein)
3 | – | – | – | – | – | 22 | 45 | 45 | – | – | PKA type II regulatory subunit alpha (RIIα), endogenous (from UniProt P13861 1-404) (natural protein)
4 | – | 14.4 | 0.049 | 11.4 | 0.062 | – | – | – | 12.3 | 0.057 | PKA type II regulatory subunit alpha, iRFP-tagged (RII-iRFP) (from UniProt P13861 1-404) (natural protein)
